# Measurements from PMC11921806, “Structural characterization and inhibition of the interaction between ch-TOG and TACC3” (The Journal of Cell Biology, 2025).
# Columns and labels:
# TACC3 629–838 [1] = target: T1, TACC3 629–838 (human, UniProt Q9Y6A5 629-838); experiment: pull-down; in vitro co-precipitation; His-NusA-ch-TOG 1817–1957 constructs immobilised on Nickel Sepharose, TACC3 629–838 added; binding of TACC3 resolved by western blot; conditions: both partners purified
# T1 construct: human TACC3, TACC domain, residues 629-838; For MST the protein was fluorescently labelled via NHS coupling (NHS Red labelling kit, Nanotemper); Construct from Hood et al., 2013; also called TACC3 TACC domain; TACC3 TD; not shown: His, N-terminal, cleaved; NusA, N-terminal, cleaved
# [2] = target: the molecule itself; experiment: EPR (CW EPR and DEER); MTSL-labelled TACC3 proteins, 50 μM with 30% glycerol; CW EPR at 120 K, four-pulse DEER at 50 K
# TACC3 629–838 [3] = target: T1, TACC3 629–838; experiment: MST; NHS Red labelled TACC domain at 600 nM, H5 peptide 0–400 μM; 20 mM sodium phosphate, 50 mM NaCl, 2 mM DTT, 0.05% Tween, 0.02% NaN3; one-site specific binding model; conditions: both partners purified
# ch-TOG 1517–1957 = target: T2, ch-TOG 1517–1957 (human, UniProt Q14008 1517-1957); experiment: pull-down; in vitro co-precipitation; C-terminal His-tagged Affimers immobilised on Nickel Sepharose, incubated with TACC3 629–838 ∆699–765, ch-TOG 1517–1957 added; conditions: both partners purified
# T2 construct: Construct from Hood et al., 2013; also called C-terminal domain of ch-TOG; not shown: His, N-terminal, cleaved; NusA, N-terminal, cleaved
binder,measurement,setting,value
"His-NusA-ch-TOG 1817–1957 (domain or fragment, not shown: His, N-terminal, kept; NusA, N-terminal, kept) ASRIDEKSSKAKVNDFLAEIFKKIGSKENTKEGLAELYEYKKKYSDADIEPFLKNSSQFFQSYVERGLRVIEMEREGKGRISTSTGISPQMEVTCVPTPTSTVSSIGNTNGEEVGPSVYLERLKILRQRCGLDNTKQDDRP",binding result,TACC3 629–838 [1],binds
"TACC3 MTSL-C662 (domain or fragment, MTSL spin label on C662, human TACC3 residues 629-838 with C749A and C828A; also called TACC3 629–838 C749A, C828A; source: E. coli BL21(DE3)RIL, purified, MTSL-labelled, SEC; not shown: His, N-terminal, cleaved; NusA, N-terminal, cleaved) not shown",binding result,[2],binds
"EVGPSVYLERLKILRQRCG (human ch-TOG/CKAP5 helix H5, residues 1929-1947; source: synthetic peptide) [synthetic ch-TOG H5 peptide (residues 1929–1947)]",Kd,TACC3 629–838 [3],17.3 µM
"TACC3 629–838 ∆699–765 (domain or fragment, human TACC3 residues 629-838 with residues 699-765 deleted; A version with a C-terminal biotinylated Avi-tag was used for Affimer panning and ELISA; also called TACC3 TD∆; not shown: His, N-terminal, cleaved; NusA, N-terminal, cleaved) not shown",binding result,ch-TOG 1517–1957,binds
